Experimental data as given in patent publication US20250043302A1, “MUTATED HYDROXYPHENYLPYRUVATE DIOXYGENASE POLYPEPTIDE, AND CODING GENE AND USE THEREOF” (BEIJING DABEINONG BIOTECHNOLOGY CO., LTD., priority 2021, published 2025).

Legend:
Assay type in all cases: in vivo
[1] = test system: Arabidopsis thaliana T1 plants; assay: Topramezone tolerance of transgenic Arabidopsis thaliana T1 plants (spray, bleached leaf area grade, damage score); conditions: 7 DAT, Table 4; for Classification and statistics of the grade of pesticide damage: Grade 0 / Classification and statistics of the grade of pesticide damage: Grade 1 / Classification and statistics of the grade of pesticide damage: Grade 2 / Classification and statistics of the grade of pesticide damage: Grade 3: number of plants; for Scores: pesticide damage score 0-100
Method in brief: (§1)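 Damage was assessed by bleaching grade (0 none; 1 <50%; 2 >50%; 3 100% of leaf area) one week after spraying. Sprays on 18-day-old T1 and wild-type plants used field-rate multiples: topramezone 25–200, isoxaflutole 35–280, mesotrione 52.5–420 g ai/ha.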

[2] = test system: Arabidopsis thaliana T1 plants; assay: Isoxaflutole tolerance of transgenic Arabidopsis thaliana T1 plants (spray, bleached leaf area grade, damage score); set-up: Scores (pesticide damage): scale not given here; conditions: spray, Arabidopsis thaliana T1 plants; for Classification and statistics of the grade of pesticide damage: Grade 0 (number of plants) / Classification and statistics of the grade of pesticide damage: Grade 1 (number of plants) / Classification and statistics of the grade of pesticide damage: Grade 2 (number of plants) / Classification and statistics of the grade of pesticide damage: Grade 3 (number of plants): 16 plants
Method in brief: as §1

[3] = test system: Arabidopsis thaliana T1 plants; assay: Mesotrione tolerance of transgenic Arabidopsis thaliana T1 plants (spray, bleached leaf area grade, damage score); set-up: Scores: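 damage score 0-100 computed as Σ(N×S)/(T×M)×100 over grades 0-3 with higher meaning more damage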; conditions: Arabidopsis thaliana T1 plants; for Grade 0 (classification and statistics of the grade of pesticide damage; number of plants) / Grade 1 (classification and statistics of the grade of pesticide damage; number of plants) / Grade 2 (classification and statistics of the grade of pesticide damage; number of plants) / Grade 3 (classification and statistics of the grade of pesticide damage; number of plants): 16 plants
Method in brief: as §1

[4] = isoxaflutole 35 g ai/ha (0.5x field concentration)
[5] = isoxaflutole 70 g ai/ha (1x field concentration)

B1: MsHPPDm-F372A-F383W-02: nucleotide sequence encoding Medicago sativa HPPD with F372A+F383W; vector DBN11737 (nucleic acid)
DNA: ATGGCTATTGAAACCGAAACACAAACTCAGACTGGATTTAAACTGGTAGGGTTCAAGAATTTCGTTAGGGCTAATCCCAAGTCTGATCGTTTTAAGGTCAAGAGGTTCCACCACGTGGAGTTCTGGTGCACTGATGCAACCAACACGGCGCGGCGTTTTTCACATGGTCTTGGAATGCCTATTGTTGCAAAATCCGACCTCTCCACGGGGAACCAAACACACGCCTCTTACCTGCTACGGAGTGGTGACTTGAACTTCCTCTTCAGCGCCGCCTACTCACCCTCCATATCGTTGTCTTCACCATCCTCGACCGCAGCAATTCCTACATTTTCTGCGAGCAACTGCTTCTCTTTCTCTGCCAGTCATGGCCTCGCCGTCAGAGCAGTGGCCGTTGAAGTAGAGGATGCTGAACTTGCTTTTACAACTTCAGTGAATAATGGAGCAATACCGAGCAGTCCGCCGGTCATACTTGAGAATCATGTGAAGCTAGCGGAGGTGAGGCTTTATGGGGACGTCGTTTTAAGATATGTCAGCTACAATGATCCAAACCCCAATCAAAATCCAAATTTGTTGTTCCTTCCTGGCTTCGAGCGTGTTAGCGATGAATCTTCAAACTCTTCACTGGATTTTGGAATCAGACGGTTGGATCATGCTGTTGGAAATGTTCCTGAACTCTCGAGCGCTGTGAAATATGTGAAGGACTTCACCGGTTTTCATGAATTTGCTGAGTTTACTGCAGAAGATGTGGGTACATCAGAGAGTGGCTTGAATTCCGTGGTGCTCGCCAACAACGAGGAGACTGTACTCTTACCAATGAATGAGCCAGTCTATGGCACCAAGCGTAAATCTCAAATTGAGACATATTTGGAGCACAATGAAGGAGCTGGACTTCAGCATCTCGCGCTGAAGAGTGAGGACATCTTCCGCACCCTACGGGAGATGAGGAAAAGAAGTGGTGTTGGTGGGTTTGAATTCATGCCATCACCTCCTGTCACCTACTACAGGAACCTGAAGAACAGAGTTGGTGATGTACTTTCGGACGAGCAGATAAAGGAATGTGAAGAGTTGGGGATTTTGGTTGATAGAGATGATCAAGGAACACTCCTGCAGATTGCCACAAAACCAATTGGCGACCGCCCCACTATCTGGATAGAGATCATCCAGAGGGTGGGGTGCATGCTCAAAGACGAGGAAGGGAAGGAGTACCAGAAGGGCGGCTGTGGTGGTTTTGGGAAAGGAAACTTTTCTGAGTTATTCAAATCAATTGAAGAGTATGAGAAGACGCTTGAAACGCGTCGCACTGCTTGA
modifications: MsHPPDm-F372A-F383W-02 Nucleotide Sequence
notes: vector DBN11737
Q: For B1, which “Classification and statistics of the grade of pesticide damage: Grade 0” value ([1]; topramezone 25 g ai/ha (1×)) is on record?
A: The value was 6.

Q: And the “Classification and statistics of the grade of pesticide damage: Grade 1” value ([1]; topramezone 25 g ai/ha (1×))?
A: The value was 9.

Q: And the “Classification and statistics of the grade of pesticide damage: Grade 2” value ([1]; topramezone 25 g ai/ha (1×))?
A: The value was 1.

Q: What about the “Classification and statistics of the grade of pesticide damage: Grade 3” value ([1]; topramezone 25 g ai/ha (1×)) of the same molecule?
A: Its value is 0.

Q: And the “Classification and statistics of the grade of pesticide damage: Grade 0” value ([1]; topramezone 100 g ai/ha (4×))?
A: Its value is 0.

Q: What about the “Classification and statistics of the grade of pesticide damage: Grade 1” value ([1]; topramezone 100 g ai/ha (4×)) of the same molecule?
A: The value was 8.

Q: What about the “Classification and statistics of the grade of pesticide damage: Grade 2” value ([1]; topramezone 100 g ai/ha (4×)) of the same molecule?
A: Its value is 6.

Q: And the “Classification and statistics of the grade of pesticide damage: Grade 3” value ([1]; topramezone 100 g ai/ha (4×))?
A: Its value is 2.

Q: And the Scores ([1]; topramezone 25 g ai/ha (1×))?
A: Its Scores is 23.

Q: What about the Scores ([1]; topramezone 100 g ai/ha (4×)) of the same molecule?
A: Its Scores is 54.

Q: What about the Resistance evaluation ([1]; topramezone 25 g ai/ha (1×)) of the same molecule?
A: Its Resistance evaluation is “moderately”.

Q: And the Resistance evaluation ([1]; topramezone 100 g ai/ha (4×))?
A: Its Resistance evaluation is “poorly”.

Q: And the Resistance evaluation [2, 4]?
A: The Resistance evaluation was “Moderately”.

Q: What about the “Scores (pesticide damage)” value [2, 4] of the same molecule?
A: Its value is 27.

Q: What about the “Classification and statistics of the grade of pesticide damage: Grade 0 (number of plants)” value [2, 4] of the same molecule?
A: The value was 5.

Q: And the “Classification and statistics of the grade of pesticide damage: Grade 1 (number of plants)” value [2, 4]?
A: Its value is 9.

Q: What about the “Classification and statistics of the grade of pesticide damage: Grade 2 (number of plants)” value [2, 4] of the same molecule?
A: Its value is 2.

Q: What about the “Classification and statistics of the grade of pesticide damage: Grade 3 (number of plants)” value [2, 4] of the same molecule?
A: Its value is 0.

Q: What about the Resistance evaluation [2, 5] of the same molecule?
A: The Resistance evaluation was “Moderately”.

Q: What about the “Scores (pesticide damage)” value [2, 5] of the same molecule?
A: The value was 33.

Q: And the “Classification and statistics of the grade of pesticide damage: Grade 0 (number of plants)” value [2, 5]?
A: The value was 2.

Q: What about the “Classification and statistics of the grade of pesticide damage: Grade 1 (number of plants)” value [2, 5] of the same molecule?
A: The value was 12.

Q: What about the “Classification and statistics of the grade of pesticide damage: Grade 2 (number of plants)” value [2, 5] of the same molecule?
A: Its value is 2.

Q: And the “Classification and statistics of the grade of pesticide damage: Grade 3 (number of plants)” value [2, 5]?
A: The value was 0.

Q: And the Resistance evaluation ([3]; mesotrione 52.5 g ai/ha)?
A: Its Resistance evaluation is “Moderately”.

Q: What about the Scores ([3]; mesotrione 52.5 g ai/ha) of the same molecule?
A: The Scores was 33.

Q: And the “Grade 0 (classification and statistics of the grade of pesticide damage; number of plants)” value ([3]; mesotrione 52.5 g ai/ha)?
A: Its value is 3.

Q: And the “Grade 1 (classification and statistics of the grade of pesticide damage; number of plants)” value ([3]; mesotrione 52.5 g ai/ha)?
A: The value was 10.

Q: And the “Grade 2 (classification and statistics of the grade of pesticide damage; number of plants)” value ([3]; mesotrione 52.5 g ai/ha)?
A: The value was 3.

Q: And the “Grade 3 (classification and statistics of the grade of pesticide damage; number of plants)” value ([3]; mesotrione 52.5 g ai/ha)?
A: Its value is 0.

Q: And the Resistance evaluation ([3]; mesotrione 105 g ai/ha)?
A: Its Resistance evaluation is “Non-resistant”.

Q: And the Scores ([3]; mesotrione 105 g ai/ha)?
A: Its Scores is 79.

Q: What about the “Grade 0 (classification and statistics of the grade of pesticide damage; number of plants)” value ([3]; mesotrione 105 g ai/ha) of the same molecule?
A: Its value is 0.

Q: What about the “Grade 1 (classification and statistics of the grade of pesticide damage; number of plants)” value ([3]; mesotrione 105 g ai/ha) of the same molecule?
A: Its value is 0.

Q: What about the “Grade 2 (classification and statistics of the grade of pesticide damage; number of plants)” value ([3]; mesotrione 105 g ai/ha) of the same molecule?
A: The value was 10.

Q: And the “Grade 3 (classification and statistics of the grade of pesticide damage; number of plants)” value ([3]; mesotrione 105 g ai/ha)?
A: The value was 6.
